Results taken from patent publication US20220177587A1, “METHODS AND USES OF VARIANT CD80 FUSION PROTEINS AND RELATED CONSTRUCTS” (Alpine Immune Sciences, Inc., priority 2018, published 2022).
Read-outs that look alike come from different tables or passages of the source.

Tests used:
PD-L1 (human) [1] = biological target: PD-L1 (human) (UniProt Q9NZQ7)
CD28 (human) [2] = biological target: CD28 (human) (UniProt P10747)
PD-L1 (human) [3] = biological target: PD-L1 (human) (UniProt Q9NZQ7); remark: listed apart in the source
CD28 (human) [4] = biological target: CD28 (human) (UniProt P10747); remark: listed apart in the source

PD-L1 (human), sequence (Q9NZQ7 19-290): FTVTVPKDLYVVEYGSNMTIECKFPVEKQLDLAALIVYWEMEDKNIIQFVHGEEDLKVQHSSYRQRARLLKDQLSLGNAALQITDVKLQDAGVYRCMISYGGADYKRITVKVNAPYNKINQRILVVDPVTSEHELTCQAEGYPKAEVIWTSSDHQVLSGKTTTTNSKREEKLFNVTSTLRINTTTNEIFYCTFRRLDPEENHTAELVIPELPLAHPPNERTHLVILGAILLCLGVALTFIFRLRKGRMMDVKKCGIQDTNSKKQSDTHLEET

Substance	Jurkat/IL2 reporter RLU at 50 nM, K562/OKT3/PD-L1 aAPC (PD-L1 (human) [1]) [RLU]	Jurkat/IL2 reporter RLU at 50 nM, K562/OKT3/PD-L1 aAPC (CD28 (human) [2]) [RLU]	Jurkat/IL2 reporter RLU at 50 nM, K562/OKT3/PD-L1 aAPC (PD-L1 (human) [3]) [RLU]	Jurkat/IL2 reporter RLU at 50 nM, K562/OKT3/PD-L1 aAPC (CD28 (human) [4]) [RLU]
CD80 E35D/M47I/Y87Q/K89E IgV-Fc (inert) (Fc fusion)	1580	1580		
CD80 E35D/M47V/A71G/E88D IgV-Fc (inert) (Fc fusion)	1220	1220		
CD80 V22A/E35D/M47I/Y87N IgV-Fc (inert) (Fc fusion)	1390	1390		
CD80 E35D/D46E/M47V/A71D/D90G IgV-Fc (inert) (Fc fusion)	1040	1040		
CD80 Q33L/E35D/M47I/T62N/L85Q IgV-Fc (inert) (Fc fusion)			463	463
CD80 E24D/Q33L/E35D/M47V/K54R/L85Q IgV-Fc (inert) (Fc fusion)			3240	3240
CD80 E7D/E35D/M47I/L97Q IgV-Fc (inert) (Fc fusion)			1240	1240
CD80 Q27H/E35D/M47L/L85Q/R94Q/E95K IgV-Fc (inert) (Fc fusion)			513	513
CD80 H18Y/Q33L/E35D/M47I IgV-Fc (inert) (Fc fusion)			486	486
CD80 Q33R/E35D/D46E/M47I IgV-Fc (inert) (Fc fusion)			522	522
CD80 E35D/M47I/E77A/L85Q/R94W IgV-Fc (inert) (Fc fusion)			473	473
CD80 H18Y/E35D/V68M/L97Q IgV-Fc (inert) (Fc fusion)			4340	4340
CD80 Q33L/E35D/D46E/M47I IgV-Fc (inert) (Fc fusion)			554	554
CD80 A26E/E35D/M43T/M47L/L85Q/R94Q IgV-Fc (inert) (Fc fusion)			526	526
CD80 V22A/E23D/Q33L/E35D/M47V IgV-Fc (inert) (Fc fusion)			390	390
CD80 V22A/E35D/V68E/A71D IgV-Fc (inert) (Fc fusion)			538	538
CD80 Q33R/E35D/K37E/M47V/L85Q IgV-Fc (inert) (Fc fusion)			464	464
CD80 A26E/Q33L/E35D/M47L IgV-Fc (inert) (Fc fusion)			476	476
CD80 Y31S/E35D/M47L/T79L/E88G IgV-Fc (inert) (Fc fusion)			496	496
CD80 V22A/R29H/E35D/D46E/M47I IgV-Fc (inert) (Fc fusion)			3310	3310
CD80 Q33L/E35D/T41S/M43I IgV-Fc (inert) (Fc fusion)			533	533
CD80 H18Y/Y31H/E35D/M47V/A71G/L85Q IgV-Fc (inert) (Fc fusion)			455	455
CD80 Q27H/Q33L/E35D/M47V/N55D/L85Q/K89N IgV-Fc (inert) (Fc fusion)			551	551
CD80 E35D/M47L/A71G/L97Q IgV-Fc (inert) (Fc fusion)			2160	2160
CD80 Q33L/E35D/M47V/T79A IgV-Fc (inert) (Fc fusion)			527	527
CD80 A26E/Q33L/E35D/M47L/L85Q IgV-Fc (inert) (Fc fusion)			416	416

Second part, the substance after the results:

Jurkat/IL2 reporter RLU at 50 nM, K562/OKT3/PD-L1 aAPC (PD-L1 (human) [1]) [RLU]	Jurkat/IL2 reporter RLU at 50 nM, K562/OKT3/PD-L1 aAPC (CD28 (human) [2]) [RLU]	Jurkat/IL2 reporter RLU at 50 nM, K562/OKT3/PD-L1 aAPC (PD-L1 (human) [3]) [RLU]	Jurkat/IL2 reporter RLU at 50 nM, K562/OKT3/PD-L1 aAPC (CD28 (human) [4]) [RLU]	Substance
1440	1440			CD80 E35D/M47V/N48K/V68M/K89N IgV-Fc (inert) (Fc fusion)
978	978			CD80 Q27H/E35D/D46V/M47L/A71G IgV-Fc (inert) (Fc fusion)
227	227			CD80 R29H/E35D/M43V/M47I/I49V IgV-Fc (inert) (Fc fusion)
851	851			CD80 E35D/K37E/M47V/N48D/L85Q/D90N IgV-Fc (inert) (Fc fusion)
1540	1540			CD80 E35D/T41S/M43I/M47L/A71G IgV-Fc (inert) (Fc fusion)
215	215			CD80 Q33R/E35D/M47V/N48K/L85M/F92L IgV-Fc (inert) (Fc fusion)
		438	438	CD80 E35D/M47V/T62A/A71G/V83A/Y87H/L97M IgV-Fc (inert) (Fc fusion)
		553	553	CD80 Q33L/E35D/M43I/L85Q/R94W IgV-Fc (inert) (Fc fusion)
		468	468	CD80 S15P/Q33L/E35D/M47L/L85Q IgV-Fc (inert) (Fc fusion)
		566	566	CD80 H18Y/V20A/Q33L/E35D/M47V/Y53F IgV-Fc (inert) (Fc fusion)
		358	358	CD80 Q33L/E35D/N48K/L85Q/L97Q IgV-Fc (inert) (Fc fusion)
		500	500	CD80 A26E/Q33R/E35D/M47L/L85Q IgV-Fc (inert) (Fc fusion)
		572	572	CD80 Q33L/E35D/M47L/V68M/L85Q/E88D IgV-Fc (inert) (Fc fusion)
		415	415	CD80 Q33K/E35D/M47V/K89E/K93R IgV-Fc (inert) (Fc fusion)
	1790		3040	WT CD80-ECD-Fc (effector) (Fc fusion)
		498	498	CD80 A26E/E35D/M43I/M47L/L85Q/K86E/R94W IgV-Fc (inert) (Fc fusion)
